Measurements as given in patent US8318206.

Key:
[1] = system: fluorenyl-9-methoxycarbonyl (Fmoc)-SSFYSGGGC-CONH2
[2] = system: T1, Fmoc-Gly-Phe-Cys-NH2 (peptide 1)
T1 sequence: GFC

| Substance | dispersion of the aggregate (percentage change in intensity against time) [1] | disassembly of nanoparticle aggregate [2] |
| --- | --- | --- |
| Prostate Specific Antigen (PSA) | Discrimination of PSA concentration is seen after 5 min |  |
| trypsin |  | 8.5 nm gold particles functionalised with Fmoc-Gly-Phe-Cys-NH2 did not disassemble upon introduction of trypsin |
